Experimental data as given in the supplement of paper PMC11246515.
± gives the standard deviation of the averaged measurements.

Experiment: total protein half-life in vivo (active degradation + dilution); higher = more stable protein
[1] = E. coli NCM3722 delta-clpP delta-lon delta-hslV, growth: N-lim chemostat, doubling time 6 h
[2] = E. coli NCM3722 delta-clpP, growth: N-lim chemostat, doubling time 6 h
[3] = E. coli NCM3722 delta-hslV, growth: N-lim chemostat, doubling time 6 h
[4] = E. coli NCM3722 delta-lon, growth: N-lim chemostat, doubling time 6 h
[5] = E. coli NCM3722 delta-smpB, growth: N-lim chemostat, doubling time 6 h
[6] = wild type E. coli NCM3722, growth: C-lim chemostat, doubling time 3 h
[7] = wild type E. coli NCM3722, growth: C-lim chemostat, doubling time 6 h
[8] = wild type E. coli NCM3722, growth: C-lim chemostat, doubling time 12 h
[9] = wild type E. coli NCM3722, growth: N-lim chemostat, doubling time 6 h
[10] = wild type E. coli NCM3722, growth: N-lim chemostat, doubling time 12 h
[11] = wild type E. coli NCM3722, growth: P-lim chemostat, doubling time 6 h
[12] = wild type E. coli NCM3722, growth: P-lim chemostat, doubling time 12 h

Row | Sequence | total protein half-life in vivo [1] [h] | total protein half-life in vivo [2] [h] | total protein half-life in vivo [3] [h] | total protein half-life in vivo [4] [h] | total protein half-life in vivo [5] [h] | total protein half-life in vivo [6] [h] | total protein half-life in vivo [7] [h] | total protein half-life in vivo [8] [h] | total protein half-life in vivo [9] [h] | total protein half-life in vivo [10] [h] | total protein half-life in vivo [11] [h] | total protein half-life in vivo [12] [h]
1 | MNFEGKIALVTGASRGIGRAIAETLAARGAKVIGTATSENGAQAISDYLGANGKGLMLNVTDPASIESVLEKIRAEFGEVDILVNNAGITRDNLLMRMKDEEWNDIIETNLSSVFRLSKAVMRAMMKKRHGRIITIGSVVGTMGNGGQANYAAAKAGLIGFSKSLAREVASRGITVNVVAPGFIETDMTRALSDDQRAGILAQVPAGRLGGAQEIANAVAFLASDEAAYITGETLHVNGGMYMV [P0AEK2] | 5.03 ± 0.11 | 4.85 ± 0.11 | 4.8 ± 0.2 | 5.27 ± 0.39 | 4.814 ± 0.012 | 2.98 ± 0.11 | 5.91 ± 0.17 | 12.8 ± 3.6 | 4.81 ± 0.28 | 8.546 ± 0.024 | 6.06 ± 0.38 | 11.3 ± 0.73
2 | MAISTPMLVTFCVYIFGMILIGFIAWRSTKNFDDYILGGRSLGPFVTALSAGASDMSGWLLMGLPGAVFLSGISESWIAIGLTLGAWINWKLVAGRLRVHTEYNNNALTLPDYFTGRFEDKSRILRIISALVILLFFTIYCASGIVAGARLFESTFGMSYETALWAGAAATILYTFIGGFLAVSWTDTVQASLMIFALILTPVIVIISVGGFGDSLEVIKQKSIENVDMLKGLNFVAIISLMGWGLGYFGQPHILARFMAADSHHSIVHARRISMTWMILCLAGAVAVGFFGIAYFNDHPALAGAVNQNAERVFIELAQILFNPWIAGILLSAILAAVMSTLSCQLLVCSSAITEDLYKAFLRKHASQKELVWVGRVMVLVVALVAIALAANPENRVLGLVSYAWAGFGAAFGPVVLFSVMWSRMTRNGALAGMIIGALTVIVWKQFGWLGLYEIIPGFIFGSIGIVVFSLLGKAPSAAMQKRFAEADAHYHSAPPSRLQES | 5.44 ± 0.019 | 4.61 ± 0.21 | 4.68 ± 0.42 | 4.66 | 4.592 ± 0.044 | 3.51 ± 0.45 | 5.52 ± 0.072 | 9.72 ± 1.1 |  | 7.25 ± 1.6 | 5.18 ± 0.42 | 10.6 ± 0.28
3 | MKKNQFLKESDVTAESVFFMKRRQVLKALGISATALSLPHAAHADLLSWFKGNDRPPAPAGKALEFSKPAAWQNNLPLTPADKVSGYNNFYEFGLDKADPAANAGSLKTDPWTLKISGEVAKPLTLDHDDLTRRFPLEERIYRMRCVEAWSMVVPWIGFPLHKLLALAEPTSNAKYVAFETIYAPEQMPGQQDRFIGGGLKYPYVEGLRLDEAMHPLTLMTVGVYGKALPPQNGAPVRLIVPWKYGFKGIKSIVSIKLTRERPPTTWNLAAPDEYGFYANVNPYVDHPRWSQATERFIGSGGILDVQRQPTLLFNGYAAQVASLYRGLDLRENF | 4.835 ± 0.0049 | 5.46 ± 0.24 | 5.75 ± 0.17 | 5.98 ± 0.35 | 5.33 ± 0.3 | 2.98 ± 0.034 | 5.58 ± 0.24 | 8.4 ± 0.38 | 5.79 ± 0.18 | 11.9 ± 0.43 | 5.91 ± 0.19 | 11.9 ± 0.57
4 | MVISIRRSRHEEGEELVAIWCRSVDATHDFLSAEYRTELEDLVRSFLPEAPLWVAVNERDQPVGFMLLSGQHMDALFIDPDVRGCGVGRVLVEHALSMAPELTTNVNEQNEQAVGFYKKVGFKVTGRSEVDDLGKPYPLLNLAYVGA | 3.78 |  |  |  |  |  |  |  |  |  |  | 
5 | MKIVIAPDSFKESLSAEKCCQAIKAGFSTLFPDANYICLPIADGGEGTVDAMVAATGGNIVTLEVCGPMGEKVNAFYGLTGDGKTAVIEMAAASGLMLVAPEKRNPLLASSFGTGELIRHALDNDIRHIILGIGGSATVDGGMGMAQALGVRFLDADGQALAANGGNLARVASIEMDECDPRLANCHIEVACDVDNPLVGARGAAAVFGPQKGATPEMVEELEQGLQNYARVLQQQTEINVCQMAGGGAAGGMGIAAAVFLNADIKPGIEIVLNAVNLAQAVQGAALVITGEGRIDSQTAGGKAPLGVASVAKQFNVPVIGIAGVLGDGVEVVHQYGIDAVFSILPRLAPLAEVLASGETNLFNSARNIACAIKIGQGIKN | 4.41 ± 0.66 | 4.58 ± 0.6 | 4.47 ± 0.077 | 4.62 ± 0.21 | 4.3 ± 0.45 | 3.05 ± 0.13 | 4.82 ± 0.53 | 10.4 ± 1.2 | 5.7 ± 1.2 | 8.201 ± 0.034 | 5.05 ± 0.15 | 9.23 ± 0.27
6 | MSELNEKLATAWEGFTKGDWQNEVNVRDFIQKNYTPYEGDESFLAGATEATTTLWDKVMEGVKLENRTHAPVDFDTAVASTITSHDAGYINKQLEKIVGLQTEAPLKRALIPFGGIKMIEGSCKAYNRELDPMIKKIFTEYRKTHNQGVFDVYTPDILRCRKSGVLTGLPDAYGRGRIIGDYRRVALYGIDYLMKDKLAQFTSLQADLENGVNLEQTIRLREEIAEQHRALGQMKEMAAKYGYDISGPATNAQEAIQWTYFGYLAAVKSQNGAAMSFGRTSTFLDVYIERDLKAGKITEQEAQEMVDHLVMKLRMVRFLRTPEYDELFSGDPIWATESIGGMGLDGRTLVTKNSFRFLNTLYTMGPSPEPNMTILWSEKLPLNFKKFAAKVSIDTSSLQYENDDLMRPDFNNDDYAIACCVSPMIVGKQMQFFGARANLAKTMLYAINGGVDEKLKMQVGPKSEPIKGDVLNYDEVMERMDHFMDWLAKQYITALNIIHYMHDKYSYEASLMALHDRDVIRTMACGIAGLSVAADSLSAIKYAKVKPIRDEDGLAIDFEIEGEYPQFGNNDPRVDDLAVDLVERFMKKIQKLHTYRDAIPTQSVLTITSNVVYGKKTGNTPDGRRAGAPFGPGANPMHGRDQKGAVASLTSVAKLPFAYAKDGISYTFSIVPNALGKDDEVRKTNLAGLMDGYFHHEASIEGGQHLNVNVMNREMLLDAMENPEKYPQLTIRVSGYAVRFNSLTKEQQQDVITRTFTQSM | 4.8 ± 0.094 | 3.3 ± 0.053 | 2.98 ± 0.12 | 3.71 ± 0.17 | 2.58 ± 0.067 | 2 ± 0.078 | 3.04 ± 0.058 | 4.18 ± 0.3 | 3.04 ± 0.21 | 4.452 ± 0.017 | 3.36 ± 0.26 | 6.13 ± 0.27
7 | MKLTTHHLRTGAALLLAGILLAGCDQSSSDAKHIKVGVINGAEQDVAEVAKKVAKEKYGLDVELVGFSGSLLPNDATNHGELDANVFQHRPFLEQDNQAHGYKLVAVGNTFVFPMAGYSKKIKTVAQIKEGATVAIPNDPTNLGRALLLLQKEKLITLKEGKGLLPTALDITDNPRHLQIMELEGAQLPRVLDDPKVDVAIISTTYIQQTGLSPVHDSVFIEDKNSPYVNILVAREDNKNAENVKEFLQSYQSPEVAKAAETIFNGGAVPGW | 5.58 ± 0.19 | 6.82 ± 1.4 |  | 6.47 ± 0.86 | 6.67 ± 0.91 | 2.86 ± 0.047 | 5.49 ± 0.059 | 10.7 ± 1.3 | 5.44 ± 0.46 | 12.6 ± 2.8 | 5.38 ± 0.23 | 10.6 ± 0.015
8 | MQEYTNHSDTTFALRNISFRVPGRTLLHPLSLTFPAGKVTGLIGHNGSGKSTLLKMLGRHQPPSEGEILLDAQPLESWSSKAFARKVAYLPQQLPPAEGMTVRELVAIGRYPWHGALGRFGAADREKVEEAISLVGLKPLAHRLVDSLSGGERQRAWIAMLVAQDSRCLLLDEPTSALDIAHQVDVLSLVHRLSQERGLTVIAVLHDINMAARYCDYLVALRGGEMIAQGTPAEIMRGETLEMIYGIPMGILPHPAGAAPVSFVY | 5.18 | 5.55 |  |  | 5.19 ± 0.12 | 2.65 ± 0.19 | 6.7 | 11.4 | 6.03 ± 0.81 | 10.7 |  | 12.9 ± 3
